Experimental data taken from publication PMC9969106.

Tests used:
Settings in all cases: glycan lost; control: GlyRα1WT
[1] = whole-cell patch-clamp, saturating 1 mM glycine
[2] = whole cell fraction western blot, normalized to pan-cadherin
[3] = whole-cell patch-clamp dose-response, HEK293
[4] = whole-cell patch-clamp, 100 μM glycine

B1: GlyRα1: N38Q (protein)
parent chain: MYSFNTLRLYLWETIVFFSLAASKEAEAARSAPKPMSPSDFLDKLMGRTSGYDARIRPNFKGPPVNVSCNIFINSFGSIAETTMDYRVNIFLRQQWNDPRLAYNEYPDDSLDLDPSMLDSIWKPDLFFANEKGAHFHEITTDNKLLRISRNGNVLYSIRITLTLACPMDLKNFPMDVQTCIMQLESFGYTMNDLIFEWQEQGAVQVADGLTLPQFILKEEKDLRYCTKHYNTGKFTCIEARFHLERQMGYYLIQMYIPSLLIVILSWISFWINMDAAPARVGLGITTVLTMTTQSSGSRASLPKVSYVKAIDIWMAVCLLFVFSALLEYAAVNFVSRQHKELLRFRRKRRHHKSPMLNLFQEDEAGEGRFNFSAYGMGPACLQAKDGISVKGANNSNTTNPPPAPSKSPEEMRKLFIQRAKKIDKISRIGFPMAFLIFNMFYWIIYKIVRREDVHNQ
other: channel current, other: current amplitude [1]: no change, 5.0 ± 0.8 vs 6.0 ± 0.6
expression_or_secretion, other: relative expression [2]: no change, 0.57 ± 0.13 vs 1.0 ± 0.16, GlyRα1WT 1.0 ± 0.16; GlyRα1N38Q 0.57 ± 0.13; p = 0.1118
other: glycine potency, EC50 [3]: decreases, 206 vs 85
other: channel current, other: current amplitude [4]: decreases, 1.0 ± 0.3 vs 3.6 ± 0.5
